Data from patent US20100113339A1.
pKd: −log10 of the molar value.

Experiments:
[1] = target: rhesus serum albumin (rhesus) (UniProt Q28522); test: SPR Biacore 3000, albumin amine-coupled on CM5 chip, nanobody concentration series
[2] = target: human serum albumin (human) (UniProt P02768); test: as above
[3] = target: mouse serum albumin (mouse) (UniProt P07724); test: as above
[4] = target: mouse serum albumin (mouse) (UniProt P07724); test: SPR Biacore 3000; mouse albumin against human/rhesus albumin as reference

Sequence of PMP6A6 (ALB1) (VHH) (VHH): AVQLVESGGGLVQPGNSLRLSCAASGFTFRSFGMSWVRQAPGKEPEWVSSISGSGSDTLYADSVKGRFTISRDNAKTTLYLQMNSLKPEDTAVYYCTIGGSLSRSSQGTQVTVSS
Sequence of mouse serum albumin (mouse) (P07724 25-608 limits assumed): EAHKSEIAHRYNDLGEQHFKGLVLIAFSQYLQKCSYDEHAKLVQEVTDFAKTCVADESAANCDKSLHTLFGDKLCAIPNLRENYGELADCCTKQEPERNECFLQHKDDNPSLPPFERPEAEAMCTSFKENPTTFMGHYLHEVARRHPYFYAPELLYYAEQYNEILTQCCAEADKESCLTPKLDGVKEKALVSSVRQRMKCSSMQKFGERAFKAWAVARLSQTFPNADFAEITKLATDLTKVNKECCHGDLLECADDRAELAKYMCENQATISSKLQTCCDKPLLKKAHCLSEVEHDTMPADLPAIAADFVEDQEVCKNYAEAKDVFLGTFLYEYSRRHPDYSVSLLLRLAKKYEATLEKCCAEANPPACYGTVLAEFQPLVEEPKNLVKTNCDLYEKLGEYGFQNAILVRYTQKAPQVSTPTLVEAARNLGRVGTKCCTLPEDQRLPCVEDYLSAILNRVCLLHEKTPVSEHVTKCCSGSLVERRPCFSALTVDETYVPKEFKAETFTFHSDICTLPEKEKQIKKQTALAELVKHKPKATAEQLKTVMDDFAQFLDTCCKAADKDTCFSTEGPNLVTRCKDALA
Sequence of rhesus serum albumin (rhesus) (Q28522 17-600 limits assumed): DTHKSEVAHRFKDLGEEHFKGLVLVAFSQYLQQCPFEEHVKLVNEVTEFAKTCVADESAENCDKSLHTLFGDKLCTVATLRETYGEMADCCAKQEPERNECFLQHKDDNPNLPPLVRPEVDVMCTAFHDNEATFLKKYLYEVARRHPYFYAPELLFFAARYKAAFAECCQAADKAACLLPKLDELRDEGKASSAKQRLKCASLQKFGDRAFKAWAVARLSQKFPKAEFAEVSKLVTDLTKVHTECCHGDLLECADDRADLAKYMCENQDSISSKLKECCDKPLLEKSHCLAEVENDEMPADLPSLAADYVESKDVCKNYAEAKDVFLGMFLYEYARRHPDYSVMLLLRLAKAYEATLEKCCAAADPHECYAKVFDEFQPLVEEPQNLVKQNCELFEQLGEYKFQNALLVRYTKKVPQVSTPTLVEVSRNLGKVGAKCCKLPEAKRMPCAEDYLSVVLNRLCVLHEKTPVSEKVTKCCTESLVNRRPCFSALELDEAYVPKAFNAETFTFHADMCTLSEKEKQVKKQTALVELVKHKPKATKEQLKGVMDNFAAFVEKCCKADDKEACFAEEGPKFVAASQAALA

With PMP6A6 (ALB1) (VHH) the pKd [1] was 9.28, the koff [1] was 0.000546 s⁻¹ and the kon [1] was 1.05e+06 M⁻¹ s⁻¹. The pKd [2] was 9.24, the koff [2] was 0.00063 s⁻¹ and the kon [2] was 1.11e+06 M⁻¹ s⁻¹. The pKd [3] was 8.19, the koff [3] was 0.00725 s⁻¹ and the kon [3] was 1.11e+06 M⁻¹ s⁻¹. It also gave a factor of difference in affinity for human/rhesus versus mouse serum albumin [4] of 12 fold.
